These results are taken from article PMC8231982.

Assay [1] has as its target HIV-1 gp120 monomer, strain HxBc2 (HIV-1, strain HxBc2) (UniProt P04578). The assay is described as follows: SPR. For orientation: In SPR one partner is held on a chip, and binding of the other changes the refractive index at the surface.
Assay [2] concerns the target HA H3 top domain (not stated (Figure 2 shows HA of influenza A virus X-31)) (UniProt P03437). The assay is described as follows: ELISA. A general note: An ELISA detects its analyte on a solid surface through an enzyme-linked reagent.

As a reminder, the Kd is the equilibrium constant for the complex coming apart. High values mean a looser complex, low ones a tighter complex. Consider “CVN2L0, engineered linker-free domain-swapped dimer of cyanovirin-N (designed binder)”, for which the Kd in assay [1] worked out at 49 nM.

For “SUMO-CVN2L0 fusion protein (designed binder)”, the Kd in assay [2] stood at 554 nM. In other words, the sub-micromolar range.
